Assay results taken from publication PMC4381287, “Structural characterization of the late competence protein ComFB from Bacillus subtilis” (Bioscience Reports, 2014).

Target: the molecule itself
Assay: SEC; Superdex75 10/300 column, calibrated with standards of known molecular weight; wild type and variants at similar concentrations

B1: late competence protein ComFB from Bacillus subtilis, N-terminally 6xHis-tagged, wild type (natural protein, B. subtilis)
chain: MLVNSKEIVMKELLDRYMDQLHMACTCQVCQNDVLALSLNKVSPSYVTDFKKIAYTKAELVDKQKNTAMLVILAESAAVVSESPSDLCQTKQEEAFIN
notes: ComFB, second protein of the comF operon of Bacillus subtilis, amplified from chromosomal DNA of strain PY79; the purified tagged monomer is 13.5 kDa; the crystal model holds residues 1-91 (chain A); By LC-ESI MS the first methionine is removed; Each subunit holds one Zn2+ ion (C25, C27, C30, C88); The histidine tag was uncleaved in the crystals; also called His6-ComFB; native ComFB; source: E. …
  stoichiometry N: 2
